Results published in US20190151328A1 (published 2019).
Each block holds one binder with its values, some of them ahead of it.

Molecular target: T1, human epidermal growth factor receptor 3 (HER3) (human, UniProt P21860 20-1342)
T1 construct: whole, on cells; also called ErbB3; HER3 protein
Test: flow cytometry on HCC1569 cells, PE-coupled anti-human secondary antibody; one-site specific binding fit (GraphPad Prism)
Description: A human breast cancer cell line HCC1569 (CRL-2330) from ATCC was cultured in an RPMI1640 medium (purchased from Invitrogen Corp., containing 10% […] (manufactured by Invitrogen Corp.) and 2 mM L-glutamine (manufactured by Invitrogen Corp.)). The cells were dissociated from the culture plate using ACCUTASE® SOLUTION (Millipore Corp., SCR005) or EDTA (5 mM, phosphate buffered saline (PBS, 137 mM sodium chloride, 2.7 mM potassium chloride, 1.47 mM potassium dihydrogen phosphate, and 10.5 mM disodium hydrogen phosphate)), and the number of living cells was measured by trypan blue treatment. The same numbers of cells suspended in a fluorescence-activated cell sorting (FACS) buffer (PBS containing 3% FBS and 0.004% sodium azide) were inoculated to 96-well U-bottom plates, and the cells were precipitated by centrifugation and suspended in 100 uL of an ice-cooled antibody or antibody-drug conjugate dilution or FACS buffer.
The cells of each group were reacted with a primary antibody dilution for 45 minutes on ice and then washed with a FACS buffer. […]
FIG. 3 and Table 1 show the mean fluorescence intensity of HCC1569 treated with serial dilutions of U1-59 or each antibody-drug conjugate. The equilibrium binding affinity KD and the maximum binding strength Bmax were calculated using GraphPad Prism software.

Bmax: 29000
B1: Antibody-drug conjugate (3) (antibody, human IgG1, kappa, V domains shown)
VH: QVQLQQWGAGLLKPSETLSLTCAVYGGSFSGYYWSWIRQPPGKGLEWIGEINHSGSTNYNPSLKSRVTISVETSKNQFSLKLSSVTAADTAVYYCARDKWTWYFDLWGRGTLVTVSS
VL: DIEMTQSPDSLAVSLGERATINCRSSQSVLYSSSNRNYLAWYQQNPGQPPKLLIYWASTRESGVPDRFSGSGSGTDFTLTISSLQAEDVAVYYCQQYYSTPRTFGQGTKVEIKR
modifications: may carry one drug-linker molecule (L1 species of Common procedure F); position not given; drug-linker -(Succinimid-3-yl-N)-CH2CH2CH2CH2CH2-C(=O)-GGFG-NH-CH2CH2CH2-C(=O)-(NH-DX) (exatecan) on cysteines by thioether bond at the reduced disulfide bonds of the hinge part; positions not given; average 4.9 drug molecules per antibody (Common procedure E)
notes: also called ADC (3)

Kd: 2.73 nM
B2: Antibody-drug conjugate (13) (antibody, human IgG1, kappa, V domains shown)
VH: B1 VH
VL: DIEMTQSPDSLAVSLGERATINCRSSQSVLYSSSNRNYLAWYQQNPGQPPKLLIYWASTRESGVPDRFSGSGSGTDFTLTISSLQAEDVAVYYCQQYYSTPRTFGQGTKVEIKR
modifications: may carry one drug-linker molecule (L1 species of Common procedure F); position not given; drug-linker -(Succinimid-3-yl-N)-CH2CH2CH2CH2CH2-C(=O)-GGFG-NH-CH2-O-CH2-C(=O)-(NH-DX) (exatecan) on cysteines by thioether bond at the reduced disulfide bonds of the hinge part; positions not given; average 6.2 (Common procedure E) or 7.0 (Common procedure F) drug molecules per antibody
notes: also called ADC (13)
